Numbered stars: 1 amine (or outer) side, 2 acyl side, 3 side chain; on linkers, the order of the positions; unused ones are H or OH. Square brackets hold non-standard residues; d marks the D form. Side chains are listed from the residue outwards. Ends that are not written are not given here. γGlu = O=C(O)[C@H](CCC(=O)[*:2])N[*:1]; x53 = not defined here; Aib = CC(C)(N)C(=O)O
Each binder was assayed against human GLP-1 receptor (human, UniProt P43220 24-463) (assay: cell-based or functional assay).
With H[Aib]QGTFTSDLSKQK([γGlu-x53])ESRRAQDFIEWLKAGGPSSGAPPPS-NH2 (reading uncertain) [SEQ ID NO: 77] the “EC50 hGLP-1R (cAMP)” value was 4.3 pM. HXQGTFTSDLSKQKESRAAQDFIEWLKAGGPSSGAPPPS (dSer at 2; K(γE-x70) at 14; C-terminal NH2) [SEQ ID NO: 51] was tested, and the “EC50 hGLP-1R (cAMP)” value was 2.7 pM. For HXQGTFTSDLSKQKESRRAQDFIEWLKEGGPSSGRPPPS (dSer at 2; K(γE-x53) at 14; C-terminal NH2) [SEQ ID NO: 82], the “EC50 hGLP-1R (cAMP)” value was 11.7 pM. HXQGTFTSDLSKQKESRAAQDFIEWLKAGGPSSGAPPPS (dSer at 2; K(γE-x60) at 14; C-terminal NH2) [SEQ ID NO: 57] was tested, and the “EC50 hGLP-1R (cAMP)” value was 45 pM. HXQGTFTSDLSKQKDSRRAQDFIEWLKNGGPSSGAPPPS (dSer at 2; K(γE-x72) at 14; C-terminal NH2) [SEQ ID NO: 91] was tested, and the “EC50 hGLP-1R (cAMP)” value was 15.1 pM. With HXQGTFTSDLSKQKDSRRAQDFIEWLKNGGPSSGAPPPS (dSer at 2; K(γE-x53) at 14; C-terminal NH(pyrrolidin)) [SEQ ID NO: 98] the “EC50 hGLP-1R (cAMP)” value was 9.6 pM. For HXQGTFTSDLSKQKESRRAXDFIEWLKAGGPSSGAPPPS (dSer at 2; K(x53) at 14; Aib at 20; C-terminal NH2) [SEQ ID NO: 76], the “EC50 hGLP-1R (cAMP)” value was 44.9 pM. In the case of HXQGTFTSDLSKQKEKRRAQDFIEWLKNGGPSSGAPPPS (dSer at 2; K(γE-x53) at 14; C-terminal NH2) [SEQ ID NO: 88], the “EC50 hGLP-1R (cAMP)” value is reported as 2.4 pM. HXQGTFTSDLSKQKESRRAQDFIEWLKNAGPSSGAPPPS (dSer at 2; K(γE-x53) at 14; C-terminal NH2) [SEQ ID NO: 95] was tested, and the “EC50 hGLP-1R (cAMP)” value was 20.6 pM. With HXQGTFTSDLSKQKESRAAQDFIEWLKAGGPSSGAPPPS (dSer at 2; K(GABA-x70) at 14; C-terminal NH2) [SEQ ID NO: 53] the “EC50 hGLP-1R (cAMP)” value was 5.4 pM. With HXQGTFTSDLSKQKESRAAQDFIEWLKAGGPSSGAPPPS (dSer at 2; K(γE-x82) at 14; C-terminal NH2) [SEQ ID NO: 64] the “EC50 hGLP-1R (cAMP)” value was 3.1 pM. HXQGTFTSDLSKQKESRAAQDFIEWLKAGGPSSGAPPPS (dSer at 2; K(γE-x75) at 14; C-terminal NH2) [SEQ ID NO: 9] was tested, and the “EC50 hGLP-1R (cAMP)” value was 2.2 pM. For HXQGTFTSDLSKQKDSRRAQDFIEWLKNGGPSSGAPPPS (dSer at 2; K(γE-x53) at 14; C-terminal NH(n-Propyl)) [SEQ ID NO: 10], the “EC50 hGLP-1R (cAMP)” value was 9.2 pM. In the case of HXQGTFTSDLSKQKDSRRAQDFIEWLKNTGPSSGAPPPS (dSer at 2; K(γE-x53) at 14; C-terminal NH2) [SEQ ID NO: 92], the “EC50 hGLP-1R (cAMP)” value is reported as 26 pM. With HXQGTFTSDLSKQKESKAAQDFIEWLKAGGPSSGAPPPS (dSer at 2; K(GABA-x53) at 14; C-terminal NH2) [SEQ ID NO: 7] the “EC50 hGLP-1R (cAMP)” value was 3.5 pM. In the case of HXQGTFTSDLSKQKESRAAQDFIEWLKAGGPSSGAPPPS (dSer at 2; K(βA-βA-x70) at 14; C-terminal NH2) [SEQ ID NO: 54], the “EC50 hGLP-1R (cAMP)” value is reported as 4.8 pM. With HXQGTFTSDLSKQKESRAAQDFIEWLKAGGPSSGAPPPS (dSer at 2; K(γE-x79) at 14; C-terminal NH2) [SEQ ID NO: 61] the “EC50 hGLP-1R (cAMP)” value was 5.3 pM. HXQGTFTSDLSKQKESRRAQLFIEWLKAGGPSSGAPPPS (dSer at 2; K(γE-x53) at 14; C-terminal NH2) [SEQ ID NO: 68] was tested, and the “EC50 hGLP-1R (cAMP)” value was 7.9 pM. In the case of HXQGTFTSDLSKQXESRRAQDFIEWLKAGGPSSGAPPPS (dSer at 2; Dab(γE-x53) at 14; C-terminal NH2) [SEQ ID NO: 72], the “EC50 hGLP-1R (cAMP)” value is reported as 25.9 pM. With HXQGTFTSDLSKQKDSRRAQDFIEWLKNGGPSSGAPPPS (dSer at 2; K(γE-x70) at 14; C-terminal NH2) [SEQ ID NO: 8] the “EC50 hGLP-1R (cAMP)” value was 6.3 pM. With HXHGTFTSDLSKQKESRRAQDFIEWLKAGGPSSGAPPPS (dSer at 2; K(γE-x53) at 14; C-terminal NH2) [SEQ ID NO: 73] the “EC50 hGLP-1R (cAMP)” value was 4.1 pM. In the case of HXQGTFTSDLSKQKESRAAQDFIEWLKAGGPSSGAPPPS (dSer at 2; K(γE-x80) at 14; C-terminal NH2) [SEQ ID NO: 62], the “EC50 hGLP-1R (cAMP)” value is reported as 3.9 pM. For HXQGTFTSDLSKQKESRAAQDFIEWLKAGGPSSGAPPPS (dSer at 2; K(γE-x81) at 14; C-terminal NH2) [SEQ ID NO: 63], the “EC50 hGLP-1R (cAMP)” value was 4.9 pM. HXQGTFTSDLSKQKESRAAQDFIEWLKAGGPSSGAPPPS (dSer at 2; K(γE-x77) at 14; C-terminal NH2) [SEQ ID NO: 60] was tested, and the “EC50 hGLP-1R (cAMP)” value was 38.4 pM. In the case of HXQGTFTSDLSKQKESRAAQDFIEWLKAGGPSSGAPPPS (dSer at 2; K(GABA-x60) at 14; C-terminal NH2) [SEQ ID NO: 58], the “EC50 hGLP-1R (cAMP)” value is reported as 45.6 pM.

What follows are binders tested against human glucagon receptor (human, UniProt P47871 26-477) (assay: cell-based or functional assay).
Sequence of human glucagon receptor (P47871 26-477): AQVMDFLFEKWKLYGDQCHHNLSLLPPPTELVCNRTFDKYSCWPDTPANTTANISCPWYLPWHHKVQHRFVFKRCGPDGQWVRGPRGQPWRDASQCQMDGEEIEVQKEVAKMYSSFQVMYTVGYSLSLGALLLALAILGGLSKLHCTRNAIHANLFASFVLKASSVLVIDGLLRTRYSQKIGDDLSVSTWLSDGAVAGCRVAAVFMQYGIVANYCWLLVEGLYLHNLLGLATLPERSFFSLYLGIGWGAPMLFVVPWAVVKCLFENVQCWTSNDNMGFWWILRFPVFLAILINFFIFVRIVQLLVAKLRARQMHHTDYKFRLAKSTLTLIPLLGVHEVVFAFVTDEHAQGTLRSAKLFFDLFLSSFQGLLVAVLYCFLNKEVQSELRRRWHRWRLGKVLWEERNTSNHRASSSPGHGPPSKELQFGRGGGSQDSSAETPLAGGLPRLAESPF
In the case of H[Aib]QGTFTSDLSKQK([γGlu-x53])ESRRAQDFIEWLKAGGPSSGAPPPS-NH2 (reading uncertain) [SEQ ID NO: 77], the “EC50 hGlucagon-R (cAMP)” value is reported as 11.9 pM. With HXQGTFTSDLSKQKESRAAQDFIEWLKAGGPSSGAPPPS (dSer at 2; K(γE-x70) at 14; C-terminal NH2) [SEQ ID NO: 51] the “EC50 hGlucagon-R (cAMP)” value was 3 pM. For HXQGTFTSDLSKQKESRRAQDFIEWLKEGGPSSGRPPPS (dSer at 2; K(γE-x53) at 14; C-terminal NH2) [SEQ ID NO: 82], the “EC50 hGlucagon-R (cAMP)” value was 4.7 pM. For HXQGTFTSDLSKQKESRAAQDFIEWLKAGGPSSGAPPPS (dSer at 2; K(γE-x60) at 14; C-terminal NH2) [SEQ ID NO: 57], the “EC50 hGlucagon-R (cAMP)” value was 8 pM. In the case of HXQGTFTSDLSKQKDSRRAQDFIEWLKNGGPSSGAPPPS (dSer at 2; K(γE-x72) at 14; C-terminal NH2) [SEQ ID NO: 91], the “EC50 hGlucagon-R (cAMP)” value is reported as 8.9 pM. With HXQGTFTSDLSKQKDSRRAQDFIEWLKNGGPSSGAPPPS (dSer at 2; K(γE-x53) at 14; C-terminal NH(pyrrolidin)) [SEQ ID NO: 98] the “EC50 hGlucagon-R (cAMP)” value was 1.4 pM. With HXQGTFTSDLSKQKESRRAXDFIEWLKAGGPSSGAPPPS (dSer at 2; K(x53) at 14; Aib at 20; C-terminal NH2) [SEQ ID NO: 76] the “EC50 hGlucagon-R (cAMP)” value was 162 pM. For HXQGTFTSDLSKQKEKRRAQDFIEWLKNGGPSSGAPPPS (dSer at 2; K(γE-x53) at 14; C-terminal NH2) [SEQ ID NO: 88], the “EC50 hGlucagon-R (cAMP)” value was 1.6 pM. In the case of HXQGTFTSDLSKQKESRRAQDFIEWLKNAGPSSGAPPPS (dSer at 2; K(γE-x53) at 14; C-terminal NH2) [SEQ ID NO: 95], the “EC50 hGlucagon-R (cAMP)” value is reported as 9.2 pM. With HXQGTFTSDLSKQKESRAAQDFIEWLKAGGPSSGAPPPS (dSer at 2; K(GABA-x70) at 14; C-terminal NH2) [SEQ ID NO: 53] the “EC50 hGlucagon-R (cAMP)” value was 6.5 pM. In the case of HXQGTFTSDLSKQKESRAAQDFIEWLKAGGPSSGAPPPS (dSer at 2; K(γE-x82) at 14; C-terminal NH2) [SEQ ID NO: 64], the “EC50 hGlucagon-R (cAMP)” value is reported as 6.9 pM. HXQGTFTSDLSKQKESRAAQDFIEWLKAGGPSSGAPPPS (dSer at 2; K(γE-x75) at 14; C-terminal NH2) [SEQ ID NO: 9] was tested, and the “EC50 hGlucagon-R (cAMP)” value was 4.1 pM. In the case of HXQGTFTSDLSKQKDSRRAQDFIEWLKNGGPSSGAPPPS (dSer at 2; K(γE-x53) at 14; C-terminal NH(n-Propyl)) [SEQ ID NO: 10], the “EC50 hGlucagon-R (cAMP)” value is reported as 1.7 pM. For HXQGTFTSDLSKQKDSRRAQDFIEWLKNTGPSSGAPPPS (dSer at 2; K(γE-x53) at 14; C-terminal NH2) [SEQ ID NO: 92], the “EC50 hGlucagon-R (cAMP)” value was 1 pM. For HXQGTFTSDLSKQKESKAAQDFIEWLKAGGPSSGAPPPS (dSer at 2; K(GABA-x53) at 14; C-terminal NH2) [SEQ ID NO: 7], the “EC50 hGlucagon-R (cAMP)” value was 20.7 pM. For HXQGTFTSDLSKQKESRAAQDFIEWLKAGGPSSGAPPPS (dSer at 2; K(βA-βA-x70) at 14; C-terminal NH2) [SEQ ID NO: 54], the “EC50 hGlucagon-R (cAMP)” value was 4 pM. In the case of HXQGTFTSDLSKQKESRAAQDFIEWLKAGGPSSGAPPPS (dSer at 2; K(γE-x79) at 14; C-terminal NH2) [SEQ ID NO: 61], the “EC50 hGlucagon-R (cAMP)” value is reported as 16 pM. For HXQGTFTSDLSKQKESRRAQLFIEWLKAGGPSSGAPPPS (dSer at 2; K(γE-x53) at 14; C-terminal NH2) [SEQ ID NO: 68], the “EC50 hGlucagon-R (cAMP)” value was 5.7 pM. HXQGTFTSDLSKQXESRRAQDFIEWLKAGGPSSGAPPPS (dSer at 2; Dab(γE-x53) at 14; C-terminal NH2) [SEQ ID NO: 72] was tested, and the “EC50 hGlucagon-R (cAMP)” value was 386 pM. With HXQGTFTSDLSKQKDSRRAQDFIEWLKNGGPSSGAPPPS (dSer at 2; K(γE-x70) at 14; C-terminal NH2) [SEQ ID NO: 8] the “EC50 hGlucagon-R (cAMP)” value was 2.3 pM. In the case of HXHGTFTSDLSKQKESRRAQDFIEWLKAGGPSSGAPPPS (dSer at 2; K(γE-x53) at 14; C-terminal NH2) [SEQ ID NO: 73], the “EC50 hGlucagon-R (cAMP)” value is reported as 1.7 pM. In the case of HXQGTFTSDLSKQKESRAAQDFIEWLKAGGPSSGAPPPS (dSer at 2; K(γE-x80) at 14; C-terminal NH2) [SEQ ID NO: 62], the “EC50 hGlucagon-R (cAMP)” value is reported as 10.6 pM. For HXQGTFTSDLSKQKESRAAQDFIEWLKAGGPSSGAPPPS (dSer at 2; K(γE-x81) at 14; C-terminal NH2) [SEQ ID NO: 63], the “EC50 hGlucagon-R (cAMP)” value was 8.4 pM. HXQGTFTSDLSKQKESRAAQDFIEWLKAGGPSSGAPPPS (dSer at 2; K(γE-x77) at 14; C-terminal NH2) [SEQ ID NO: 60] was tested, and the “EC50 hGlucagon-R (cAMP)” value was 19.3 pM. HXQGTFTSDLSKQKESRAAQDFIEWLKAGGPSSGAPPPS (dSer at 2; K(GABA-x60) at 14; C-terminal NH2) [SEQ ID NO: 58] was tested, and the “EC50 hGlucagon-R (cAMP)” value was 15.1 pM.

From patent publication US20180185450A1 (Sanofi, published 2018)
